The target of series [1] is T1, Bz-Ala-Ala-Tyr-Arg-His-Ala-Gly.
T1 chain: AAYRHAG

In series [2] the target is N-alpha-benzoylated peptides of SEQ ID NOs: 3-19.

B1: trypsin variant Tn K60E, E151H, N143H, D189K (protein)
chain: IVGGYTCQENSVPYQVSLNSGYHFCGGSLINDQWVVSAAHCYESRIQVRLGEHNINVLEGNEQFVNAAKIIKHPNFDRKTLNNDIMLIKLSSPVKLNARVATVALPSSCAPAGTQCLISGWGHTLSSGVNHPDLLQCLDAPLLPQADCEASYPGKITDNMVCVGFLEGGKKSCQGDSGGPVVCNGELQGIVSWGYGCALPDNPGVYTKVCNYVDWIQDTIAAN
On to B1, for which the “yield of the transamidation product with Arg-His-Ala-Lys(6-CF)-OH (HPLC)” value in series [1] is listed as “obtained in a yield of >99%”. In addition, the “rate of reaction (initial rate of peptide consumption, HPLC)” value in series [2] was “has a strong preference for a cleavage site comprising L, F or Y in position P1, R or K in position P1′ and His in position P2′”.

The values are drawn from US20080064079.
